In article PMC11601812:

Assays:
[1] = target: progesterone receptor isoform A (PR-A), full-length, Strep II tagged (human) (UniProt P06401); assay: SEC-MALS; R5020-bound PR-A, SRC3 and p300 mixed with PRE DNA; Superose 6 Increase; 20 mM Hepes, 50 mM NaCl, 5% glycerol, 1 mM TCEP, with or without 1 M urea, pH 7.5
[2] = target: steroid receptor coactivator 3 (SRC3), full-length, Strep II tagged (human) (UniProt Q9Y6Q9); assay: as above
Chain of steroid receptor coactivator 3 (SRC3), full-length, Strep II tagged (human) (Q9Y6Q9 whole entry): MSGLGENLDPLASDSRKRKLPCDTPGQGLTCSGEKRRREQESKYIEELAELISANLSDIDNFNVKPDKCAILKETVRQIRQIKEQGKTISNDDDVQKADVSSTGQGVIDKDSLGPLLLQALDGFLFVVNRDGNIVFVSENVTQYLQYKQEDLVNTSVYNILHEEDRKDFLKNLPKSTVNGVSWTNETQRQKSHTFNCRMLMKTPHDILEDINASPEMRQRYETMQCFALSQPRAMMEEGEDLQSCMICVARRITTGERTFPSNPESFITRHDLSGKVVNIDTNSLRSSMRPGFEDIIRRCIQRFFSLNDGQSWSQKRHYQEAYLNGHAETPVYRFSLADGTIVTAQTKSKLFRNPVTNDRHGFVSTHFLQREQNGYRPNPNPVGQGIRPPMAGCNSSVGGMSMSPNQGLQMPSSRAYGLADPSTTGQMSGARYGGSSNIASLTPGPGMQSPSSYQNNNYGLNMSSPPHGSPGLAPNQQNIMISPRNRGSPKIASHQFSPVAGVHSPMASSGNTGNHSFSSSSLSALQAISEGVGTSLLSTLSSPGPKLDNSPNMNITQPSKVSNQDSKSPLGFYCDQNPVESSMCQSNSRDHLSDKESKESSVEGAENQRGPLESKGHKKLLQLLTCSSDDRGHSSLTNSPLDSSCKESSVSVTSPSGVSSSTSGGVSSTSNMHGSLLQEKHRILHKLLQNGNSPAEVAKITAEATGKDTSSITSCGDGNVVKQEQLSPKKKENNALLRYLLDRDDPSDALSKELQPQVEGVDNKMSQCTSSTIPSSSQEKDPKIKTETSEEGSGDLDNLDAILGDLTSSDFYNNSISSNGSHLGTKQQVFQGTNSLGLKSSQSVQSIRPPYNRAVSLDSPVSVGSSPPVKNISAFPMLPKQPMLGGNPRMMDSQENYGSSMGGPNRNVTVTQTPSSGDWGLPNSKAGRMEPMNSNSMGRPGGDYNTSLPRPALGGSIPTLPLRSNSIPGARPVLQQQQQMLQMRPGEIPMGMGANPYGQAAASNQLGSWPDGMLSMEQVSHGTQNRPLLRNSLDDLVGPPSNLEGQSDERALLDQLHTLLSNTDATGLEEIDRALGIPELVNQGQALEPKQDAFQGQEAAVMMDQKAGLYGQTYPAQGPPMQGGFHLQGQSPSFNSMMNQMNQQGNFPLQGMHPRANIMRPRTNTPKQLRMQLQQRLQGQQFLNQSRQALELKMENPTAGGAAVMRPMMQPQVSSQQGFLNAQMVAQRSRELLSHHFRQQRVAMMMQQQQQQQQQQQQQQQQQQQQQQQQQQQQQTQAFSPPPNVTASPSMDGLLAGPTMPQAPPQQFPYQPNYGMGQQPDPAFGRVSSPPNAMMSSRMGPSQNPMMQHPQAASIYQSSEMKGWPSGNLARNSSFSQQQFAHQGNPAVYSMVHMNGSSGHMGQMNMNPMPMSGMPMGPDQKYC

Chain of progesterone receptor isoform A (PR-A), full-length, Strep II tagged (human) (P06401 165-933): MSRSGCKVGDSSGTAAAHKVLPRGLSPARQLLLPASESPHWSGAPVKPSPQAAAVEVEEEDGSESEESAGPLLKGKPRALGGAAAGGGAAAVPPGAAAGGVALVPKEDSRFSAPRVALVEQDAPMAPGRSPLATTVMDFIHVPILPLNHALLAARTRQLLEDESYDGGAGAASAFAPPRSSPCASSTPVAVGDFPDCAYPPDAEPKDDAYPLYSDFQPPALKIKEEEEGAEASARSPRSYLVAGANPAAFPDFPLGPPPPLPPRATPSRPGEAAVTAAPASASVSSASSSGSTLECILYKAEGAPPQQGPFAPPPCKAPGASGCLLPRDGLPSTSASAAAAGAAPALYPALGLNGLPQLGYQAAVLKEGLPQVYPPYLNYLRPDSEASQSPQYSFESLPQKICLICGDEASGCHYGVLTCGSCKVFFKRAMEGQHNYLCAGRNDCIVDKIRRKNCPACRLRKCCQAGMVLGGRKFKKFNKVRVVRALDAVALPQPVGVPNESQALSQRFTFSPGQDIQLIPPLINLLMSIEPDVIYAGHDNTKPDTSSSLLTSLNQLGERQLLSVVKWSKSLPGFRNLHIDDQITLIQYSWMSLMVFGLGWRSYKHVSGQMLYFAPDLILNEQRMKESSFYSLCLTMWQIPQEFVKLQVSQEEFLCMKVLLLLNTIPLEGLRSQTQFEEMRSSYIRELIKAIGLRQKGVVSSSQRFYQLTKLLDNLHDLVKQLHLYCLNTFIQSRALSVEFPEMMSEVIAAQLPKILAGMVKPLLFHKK

stoichiometry N [1]: 0.5
stoichiometry N [2]: 1
Substance: histone acetyltransferase p300, full-length, Strep II tagged, Q09472 1-2414
